{"source": "the supplement of paper PMC12783771", "parents": {"B1": {"name": "library; numbered along this chain (parent)", "chain": "MNIQIGELAKRTACPVVTIRFYEQEGLLPPPGRSRGNFRLYGEEHVERLQFIRHCRSLDMPLSDVRTLLSYRKRPDQDCGEVNMLLDEHIRQVESRIGALLELKHHLVELREACSGARPAQSCGILQGLSDCVCDTRGTTAHPSD"}}, "key": {"[1]": {"variants_of": "B1", "assay": "sfGFP reporter fluorescence (15 h) (µM FITC); higher = higher leak", "conditions": "library round: Round 0; ligand: none", "how_it_was_run": "(§1)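 Values are endpoint sfGFP fluorescence given as µM FITC equivalents. Fluorescence was read at 485/528 nm on a Synergy Neo2, and FITC standard curves were prepared in 50 mM sodium borate pH 8.5. Reactions of 1 μL combined BL21 Star (DE3) PANOx-SP extract, pPbrR-sfGFP reporter, 30 μg/mL GamS and linear PbrR templates (PCR-made, Echo-normalized to 5 nM), with 1 µM lead chloride, 30 µM zinc acetate or no metal, for 15 hr at 30 °C.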"}, "[2]": {"variants_of": "B1", "assay": "sfGFP reporter fluorescence (15 h) (µM FITC); higher = stronger transcriptional activation", "conditions": "library round: Round 0", "how_it_was_run": "as §1"}}, "note": "± gives the standard deviation of the averaged measurements."}
{"variant": "MNIQIGELAKRTACPVVTIRFYEQEGLLPPPGRSRGNFRLYGEEHVERLQFIRHCRSLDMPLSDVRTLLSYRKRPDQDCGEVNMLLDEHIRQVESRIGALLELKHHCVELREACSGARPAQSCGILQILSDCVCDTRGTTAHPSD", "note": "[L107C G128I]", "values": [{"measurement": "sfGFP reporter fluorescence", "setting": "[1]", "result": "1.34 ± 0.036"}, {"measurement": "sfGFP reporter fluorescence", "setting": "[2]; ligand: 1 µM Pb", "result": "3.12 ± 0.11"}, {"measurement": "sfGFP reporter fluorescence", "setting": "[2]; ligand: 30 µM Zn", "result": "4.14 ± 0.064"}]}
{"variant": "MNIQIGELAKRTACPVVTIRFYEQEGLLPPPGRSRGNFRLYGEEHVERLQFIRHCRSLDMPLSDVRTLLSYRKRPDQDCGEVNMLLDEHIRQVESRIGALLELKAHLVELREACSGARPAQSCGILQGLSDCVCDTRGTTAHPSD", "note": "[H105A]", "values": [{"measurement": "sfGFP reporter fluorescence", "setting": "[1]", "result": 0.0623}, {"measurement": "sfGFP reporter fluorescence", "setting": "[2]; ligand: 1 µM Pb", "result": "0.0687 ± 0.0044"}, {"measurement": "sfGFP reporter fluorescence", "setting": "[2]; ligand: 30 µM Zn", "result": "0.769 ± 0.086"}]}
{"variant": "MNIQIGELAKRTACPVVTIRFYEQEGLLPPPGRSRGNFRLYGEEHVERLQFIRHCRSLDMPLSDVRTLLSYRKRPDQDCGEVNMLLDEHIRQVESRIGALLELVHHCVELREACSGARPAQSCGILQMLSDCVCDTRGTTAHPSD", "note": "[K104V L107C G128M]", "values": [{"measurement": "sfGFP reporter fluorescence", "setting": "[1]", "result": "0.701 ± 0.023"}, {"measurement": "sfGFP reporter fluorescence", "setting": "[2]; ligand: 1 µM Pb", "result": "3.1 ± 0.15"}, {"measurement": "sfGFP reporter fluorescence", "setting": "[2]; ligand: 30 µM Zn", "result": "4.118 ± 0.038"}]}
{"variant": "MNIQIGELAKRTACPVVTIRFYEQEGLLPPPGRSRGNFRLYGEEHVERLQFIRHCRSLDMPLSDVRTLLSYRKRPDQDCGEVNMLLDEHIRQVESRIGALLELVHHCVELREACSGARPAQSCGILQILSDCVCDTRGTTAHPSD", "note": "[K104V L107C G128I]", "values": [{"measurement": "sfGFP reporter fluorescence", "setting": "[1]", "result": "0.483 ± 0.024"}, {"measurement": "sfGFP reporter fluorescence", "setting": "[2]; ligand: 1 µM Pb", "result": "2.5 ± 0.27"}, {"measurement": "sfGFP reporter fluorescence", "setting": "[2]; ligand: 30 µM Zn", "result": "3.37 ± 0.23"}]}
{"variant": "MNIQIGELAKRTACPVVTIRFYEQEGLLPPPGRSRGNFRLYGEEHVERLQFIRHCRSLDMPLSDVRTLLSYRKRPDQDCGEVNMLLDEHIRQVESRIGALLELKHHAVELREACSGARPAQSCGILQGLSDCVCDTRGTTAHPSD", "note": "[L107A]", "values": [{"measurement": "sfGFP reporter fluorescence", "setting": "[1]", "result": "0.514 ± 0.0098"}, {"measurement": "sfGFP reporter fluorescence", "setting": "[2]; ligand: 1 µM Pb", "result": "1.97 ± 0.12"}, {"measurement": "sfGFP reporter fluorescence", "setting": "[2]; ligand: 30 µM Zn", "result": "2.84 ± 0.79"}]}
{"variant": "MNIQIGELAKRTACPVVTIRFYEQEGLLPPPGRSRGNFRLYGEEHVERLQFIRHCRSLDMPLSDVRTLLSYRKRPDQDCGEVNMLLDEHIRQVESRIGALLELKHHCVELREACSGARPAQSCGILQGLSDCVCDTRGTTAHPSD", "note": "[L107C]", "values": [{"measurement": "sfGFP reporter fluorescence", "setting": "[1]", "result": "0.491 ± 0.053"}, {"measurement": "sfGFP reporter fluorescence", "setting": "[2]; ligand: 1 µM Pb", "result": "1.05 ± 0.062"}, {"measurement": "sfGFP reporter fluorescence", "setting": "[2]; ligand: 30 µM Zn", "result": "2.85 ± 0.46"}]}
{"variant": "MNIQIGELAKRTACPVVTIRFYEQEGLLPPPGRSRGNFRLYGEEHVERLQFIRHCRSLDMPLSDVRTLLSYRKRPDQDCGEVNMLLDEHIRQVESRIGALLELKHALVELREACSGARPAQSCGILQGLSDCVCDTRGTTAHPSD", "note": "[H106A]", "values": [{"measurement": "sfGFP reporter fluorescence", "setting": "[1]", "result": "0.0596 ± 0.0034"}, {"measurement": "sfGFP reporter fluorescence", "setting": "[2]; ligand: 1 µM Pb", "result": "0.0667 ± 0.00052"}, {"measurement": "sfGFP reporter fluorescence", "setting": "[2]; ligand: 30 µM Zn", "result": "0.213 ± 0.02"}]}
{"variant": "MNIQIGELAKRTACPVVTIRFYEQEGLLPPPGRSRGNFRLYGEEHVERLQFIRHCRSLDMPLSDVRTLLSYRKRPDQDCGEVNMLLDEHIRQVESRIGALLELVHHLVELREACSGARPAQSCGILQGLSDCVCDTRGTTAHPSD", "note": "[K104V]", "values": [{"measurement": "sfGFP reporter fluorescence", "setting": "[1]", "result": "0.0652 ± 0.0088"}, {"measurement": "sfGFP reporter fluorescence", "setting": "[2]; ligand: 1 µM Pb", "result": "0.173 ± 0.039"}, {"measurement": "sfGFP reporter fluorescence", "setting": "[2]; ligand: 30 µM Zn", "result": "1.35 ± 0.19"}]}
{"variant": "MNIQIGELAKRTACPVVTIRFYEQEGLLPPPGRSRGNFRLYGEEHVERLQFIRHCRSLDMPLSDVRTLLSYRKRPDQDCGEVNMLLDEHIRQVESRIGALLELYHHLVELREACSGARPAQSCGILQGLSDCVCDTRGTTAHPSD", "note": "[K104Y]", "values": [{"measurement": "sfGFP reporter fluorescence", "setting": "[1]", "result": "0.059 ± 0.0083"}, {"measurement": "sfGFP reporter fluorescence", "setting": "[2]; ligand: 1 µM Pb", "result": "0.113 ± 0.028"}, {"measurement": "sfGFP reporter fluorescence", "setting": "[2]; ligand: 30 µM Zn", "result": "1.09 ± 0.13"}]}
{"variant": "MNIQIGELAKRTACPVVTIRFYEQEGLLPPPGRSRGNFRLYGEEHVERLQFIRHCRSLDMPLSDVRTLLSYRKRPDQDCGEVNMLLDEHIRQVESRIGALLELWHHLVELREACSGARPAQSCGILQGLSDCVCDTRGTTAHPSD", "note": "[K104W]", "values": [{"measurement": "sfGFP reporter fluorescence", "setting": "[1]", "result": "0.0574 ± 0.0096"}, {"measurement": "sfGFP reporter fluorescence", "setting": "[2]; ligand: 1 µM Pb", "result": "0.0795 ± 0.013"}, {"measurement": "sfGFP reporter fluorescence", "setting": "[2]; ligand: 30 µM Zn", "result": "0.607 ± 0.096"}]}
{"variant": "MNIQIGELAKRTACPVVTIRFYEQEGLLPPPGRSRGNFRLYGEEHVERLQFIRHCRSLDMPLSDVRTLLSYRKRPDQDCGEVNMLLDEHIRQVESRIGALLELVHHLVELREACSGARPAQSCGILQILSDCVCDTRGTTAHPSD", "note": "[K104V G128I]", "values": [{"measurement": "sfGFP reporter fluorescence", "setting": "[1]", "result": "0.0826 ± 0.006"}, {"measurement": "sfGFP reporter fluorescence", "setting": "[2]; ligand: 1 µM Pb", "result": "0.287 ± 0.021"}, {"measurement": "sfGFP reporter fluorescence", "setting": "[2]; ligand: 30 µM Zn", "result": "1.84 ± 0.44"}]}
{"variant": "MNIQIGELAKRTACPVVTIRFYEQEGLLPPPGRSRGNFRLYGEEHVERLQFIRHCRSLDMPLSDVRTLLSYRKRPDQDCGEVNMLLDEHIRQVESRIGALLELVHHLVELREACSGARPAQSCGILQMLSDCVCDTRGTTAHPSD", "note": "[K104V G128M]", "values": [{"measurement": "sfGFP reporter fluorescence", "setting": "[1]", "result": "0.179 ± 0.0031"}, {"measurement": "sfGFP reporter fluorescence", "setting": "[2]; ligand: 1 µM Pb", "result": "0.808 ± 0.088"}, {"measurement": "sfGFP reporter fluorescence", "setting": "[2]; ligand: 30 µM Zn", "result": "3.325 ± 0.0054"}]}
{"variant": "MNIQIGELAKRTACPVVTIRFYEQEGLLPPPGRSRGNFRLYGEEHVERLQFIRHCRSLDMPLSDVRTLLSYRKRPDQDCGEVNMLLDEHIRQVESRIGALLELVHHCVELREACSGARPAQSCGILQGLSDCVCDTRGTTAHPSD", "note": "[K104V L107C]", "values": [{"measurement": "sfGFP reporter fluorescence", "setting": "[1]", "result": "0.184 ± 0.0062"}, {"measurement": "sfGFP reporter fluorescence", "setting": "[2]; ligand: 1 µM Pb", "result": "1.13 ± 0.23"}, {"measurement": "sfGFP reporter fluorescence", "setting": "[2]; ligand: 30 µM Zn", "result": "2.31 ± 0.5"}]}
{"variant": "MNIQIGELAKRTACPVVTIRFYEQEGLLPPPGRSRGNFRLYGEEHVERLQFIRHCRSLDMPLSDVRTLLSYRKRPDQDCGEVNMLLDEHIRQVESRIGALLELVHHAVELREACSGARPAQSCGILQGLSDCVCDTRGTTAHPSD", "note": "[K104V L107A]", "values": [{"measurement": "sfGFP reporter fluorescence", "setting": "[1]", "result": "0.166 ± 0.0088"}, {"measurement": "sfGFP reporter fluorescence", "setting": "[2]; ligand: 1 µM Pb", "result": "0.817 ± 0.042"}, {"measurement": "sfGFP reporter fluorescence", "setting": "[2]; ligand: 30 µM Zn", "result": "2.18 ± 0.12"}]}
